For 1 molecule, Kd, koff and kon results are on record in patent CN103588878A (JIANGSU T MAB BIOPHARMA, dated 2014).

In test [1] the target is T1, 生物素化重组人白细胞介素1β (rhIL-1β) (human, UniProt P01584 117-269, biotinylated (site not stated)).
T1 construct: Antigen was biotinylated and desalted before the Fortebio Octet measurement; also called 抗原rhIL-1β
Nature of the test: BLI (Fortebio Octet QK), summary range of the two runs.

The target in test [2] is T1, 生物素化重组人白细胞介素1β (rhIL-1β). Nature of the test: BLI (Fortebio Octet QK), biotinylated rhIL-1β, antibody 40-1.25 nM, run 1.
For test [3], the target named is T1, 生物素化重组人白细胞介素1β (rhIL-1β). Nature of the test: BLI (Fortebio Octet QK), biotinylated rhIL-1β, antibody 40-1.25 nM, run 2.

Several values for one entry are separate records, joined by “and”; a condition that tells them apart may be missing. Identical values can stand only once.

B1: 人源化抗人白细胞介素1β(hIL-1β)单克隆抗体 (antibody, human IgG1, kappa, V domains shown)
VH: EVQLVESGGGLVQPGGSLRLSCAVSGFSLDVYTMTWVRQAPGKGLEWIGYIWSGGSASYASWAKGRFTISKDSSKNTVYLQINSLRAEDTAVYFCARVKMISNIETFDPWGPGTLVTVSS
VL: DIQMTQSPSSVSASVGDRVTIKCQASERIYSGLAWYQQKPGKRPKLLIYRASTLASGVPSRFSGSGSGTDFTLTISSLQPEDFATYYCQQGVSSSDIDNVFGGGTKVEIKR
notes: Full light and heavy chains; Expressed in CHO DG44 cells and purified; also called 人源化抗hIL-1β单克隆抗体; humanized form of rabbit clone Q26
For the molecule B1, the Kd was 0.01 nM and 0.025 nM with 生物素化重组人白细胞介素1β (rhIL-1β) [1]; 0.0211 nM with 生物素化重组人白细胞介素1β (rhIL-1β) [2]; 0.0128 nM with 生物素化重组人白细胞介素1β (rhIL-1β) [3]. Further, the koff was found to be 3.02e-06 s⁻¹ with 生物素化重组人白细胞介素1β (rhIL-1β) [2] and 2.16e-06 s⁻¹ with 生物素化重组人白细胞介素1β (rhIL-1β) [3]. The kon with 生物素化重组人白细胞介素1β (rhIL-1β) [2] was found to be 143000 M⁻¹ s⁻¹; in the test with 生物素化重组人白细胞介素1β (rhIL-1β) [3] it was 166000 M⁻¹ s⁻¹.
